Where no end group is shown, it is not given here. [ ]: non-standard residue; d: D form. pS = N[C@@H](COP(=O)(O)O)C(=O)O
T1: GST-tagged N-motif (1-205) of the WSTF kinase domain (human, UniProt Q9UIG0 1-205)
T1 construct: Made in E. coli; also called GST-tagged WAC N-; N-terminal motif; not shown: N-terminal GST tag of pGex6p
T1 sequence: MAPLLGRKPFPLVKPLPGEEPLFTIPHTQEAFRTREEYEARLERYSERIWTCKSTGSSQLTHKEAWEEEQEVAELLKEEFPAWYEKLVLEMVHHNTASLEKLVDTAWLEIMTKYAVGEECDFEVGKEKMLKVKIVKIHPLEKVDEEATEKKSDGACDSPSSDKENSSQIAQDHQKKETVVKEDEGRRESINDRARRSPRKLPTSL


Columns and labels:
[1] = target: endogenous BRCA1 from 293T cell nuclear extracts (UniProt P38398 1-1863, limits assumed); assay: peptide pull-down from 293T nuclear extracts (FIG. 4I)
[2] = target: T1, GST-tagged N-motif (1-205) of the WSTF …; assay: co-expression in E. coli, amylose affinity purification against the MBP tag, Superdex 200 gel filtration
Experimental: For co-expression of the N- and C-motifs of WSTF, the recombinant plasmid vectors carrying the N- and C-motif constructs (above) were transformed into E. coli host strain Rosetta2 (DE3) (Novagen) for protein expression under triple antibiotic selection (ampicillin, kanamycin, and chloramphenicol) in LB medium. After overnight induction by 0.4 mM isopropyl β-D-thiogalactoside at 25° C., cells were harvested in buffer 0.4 M KCl, 20 mM Tris, pH 7.5. Co-expressed proteins were affinity purified using Amylose resin (New England Biolabs, MA) against the MBP tag. Maltose-eluted samples were purified through a Superdex 200 column (GE Healthcare) in the elution buffer (50 mM KCL, 20 mM Tris, pH 7.5). Most proteins were eluted in a single peak that contains GST-tagged […] with a stoichiometry of 1:1.

endogenous BRCA1 from 293T cell nuclear extracts, sequence (P38398 whole entry): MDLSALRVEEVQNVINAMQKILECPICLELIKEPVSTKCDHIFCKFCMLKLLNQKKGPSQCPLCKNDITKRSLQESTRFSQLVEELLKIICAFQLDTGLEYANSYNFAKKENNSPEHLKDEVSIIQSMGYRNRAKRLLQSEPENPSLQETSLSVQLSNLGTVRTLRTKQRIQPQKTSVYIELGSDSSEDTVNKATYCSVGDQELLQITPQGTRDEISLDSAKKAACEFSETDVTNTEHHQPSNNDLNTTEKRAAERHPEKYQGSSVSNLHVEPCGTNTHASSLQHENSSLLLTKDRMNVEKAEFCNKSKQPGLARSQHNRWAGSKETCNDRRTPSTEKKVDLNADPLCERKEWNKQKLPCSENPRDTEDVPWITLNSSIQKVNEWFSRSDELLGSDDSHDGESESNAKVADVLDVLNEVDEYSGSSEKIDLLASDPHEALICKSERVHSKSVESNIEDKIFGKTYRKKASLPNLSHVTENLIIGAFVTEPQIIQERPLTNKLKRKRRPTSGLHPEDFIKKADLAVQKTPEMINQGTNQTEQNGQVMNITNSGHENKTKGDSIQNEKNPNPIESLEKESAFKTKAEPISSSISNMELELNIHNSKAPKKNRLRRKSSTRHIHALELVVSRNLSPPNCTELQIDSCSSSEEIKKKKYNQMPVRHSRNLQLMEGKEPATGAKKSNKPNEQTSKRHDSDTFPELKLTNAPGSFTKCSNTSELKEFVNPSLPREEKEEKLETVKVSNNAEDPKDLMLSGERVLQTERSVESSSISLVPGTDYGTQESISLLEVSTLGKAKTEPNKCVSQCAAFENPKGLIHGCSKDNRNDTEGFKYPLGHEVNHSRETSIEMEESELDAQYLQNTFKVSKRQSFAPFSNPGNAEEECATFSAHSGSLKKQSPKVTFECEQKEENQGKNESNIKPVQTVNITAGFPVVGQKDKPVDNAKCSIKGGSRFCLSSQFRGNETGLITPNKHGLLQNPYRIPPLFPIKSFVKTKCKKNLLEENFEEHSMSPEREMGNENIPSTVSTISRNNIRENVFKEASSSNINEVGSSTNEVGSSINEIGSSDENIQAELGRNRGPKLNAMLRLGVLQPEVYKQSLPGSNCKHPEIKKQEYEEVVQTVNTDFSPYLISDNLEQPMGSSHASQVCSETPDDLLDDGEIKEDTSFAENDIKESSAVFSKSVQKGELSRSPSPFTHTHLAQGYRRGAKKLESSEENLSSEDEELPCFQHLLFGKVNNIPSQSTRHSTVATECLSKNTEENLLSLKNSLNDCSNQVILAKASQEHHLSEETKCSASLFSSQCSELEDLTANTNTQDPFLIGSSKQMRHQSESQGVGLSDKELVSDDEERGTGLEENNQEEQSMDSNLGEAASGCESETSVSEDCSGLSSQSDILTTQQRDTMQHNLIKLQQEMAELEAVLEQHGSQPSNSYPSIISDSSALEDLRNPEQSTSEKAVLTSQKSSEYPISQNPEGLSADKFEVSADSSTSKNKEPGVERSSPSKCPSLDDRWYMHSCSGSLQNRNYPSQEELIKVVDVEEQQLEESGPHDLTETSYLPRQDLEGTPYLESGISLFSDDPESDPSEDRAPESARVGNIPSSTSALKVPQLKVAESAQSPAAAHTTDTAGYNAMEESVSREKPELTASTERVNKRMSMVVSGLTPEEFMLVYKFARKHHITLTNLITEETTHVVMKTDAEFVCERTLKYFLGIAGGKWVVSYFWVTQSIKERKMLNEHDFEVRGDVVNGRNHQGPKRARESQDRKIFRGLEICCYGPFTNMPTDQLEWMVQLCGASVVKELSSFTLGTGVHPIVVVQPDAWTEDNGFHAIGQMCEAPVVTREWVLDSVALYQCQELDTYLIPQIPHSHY

Binder | binding result [1] | binding result [2]
CPSGGKKATQA[pS]QEY (Pull-down peptide; also called Ser139(ph) peptides; H2A.X peptides singly phosphorylated on Ser139) [H2A.X peptide S139(ph), N-CPSGGKKATQApSQEY-C] | no binding | –
MBP-tagged C-motif (208-345) of the WSTF kinase domain (other, Made in E. coli; also called MBP-tagged WAC C-motif; not shown: N-terminal MBP tag of a modified pRSFDuet-1) GERKWAPPKFLPHKYDVKLQNEDKIISNVPADSLIRTERPPNKEIVRYFIRHNALRAGTGENAPWVVEDELVKKYSLPSKFSDFLLDPYKYMTLNPSTKRKNTGSPDRKPSKKSKTDNSSLSSPLNPKLWCHVHLKKS | – | binds

— patent US20100080799A1 (ROCKEFELLER UNIVERSITY, published 2010)
